# Experimental data published in patent publication US20030229005A1 (BIOZYME, published 2003).
# *1 amine or outer side, *2 acyl side, *3 side chain or, on linkers, in order; H or OH if unused. [ ]: non-standard residue; d: D form. The star is where a group is joined. Dnp = O=[N+]([O-])c1ccc(*)c([N+](=O)[O-])c1; C(Me) = CSC[C@H](N[*:1])C(=O)[*:2]
# T1: human Gelatinase-A (human, UniProt P08253 110-660, limits assumed)
# T1 sequence (looked up): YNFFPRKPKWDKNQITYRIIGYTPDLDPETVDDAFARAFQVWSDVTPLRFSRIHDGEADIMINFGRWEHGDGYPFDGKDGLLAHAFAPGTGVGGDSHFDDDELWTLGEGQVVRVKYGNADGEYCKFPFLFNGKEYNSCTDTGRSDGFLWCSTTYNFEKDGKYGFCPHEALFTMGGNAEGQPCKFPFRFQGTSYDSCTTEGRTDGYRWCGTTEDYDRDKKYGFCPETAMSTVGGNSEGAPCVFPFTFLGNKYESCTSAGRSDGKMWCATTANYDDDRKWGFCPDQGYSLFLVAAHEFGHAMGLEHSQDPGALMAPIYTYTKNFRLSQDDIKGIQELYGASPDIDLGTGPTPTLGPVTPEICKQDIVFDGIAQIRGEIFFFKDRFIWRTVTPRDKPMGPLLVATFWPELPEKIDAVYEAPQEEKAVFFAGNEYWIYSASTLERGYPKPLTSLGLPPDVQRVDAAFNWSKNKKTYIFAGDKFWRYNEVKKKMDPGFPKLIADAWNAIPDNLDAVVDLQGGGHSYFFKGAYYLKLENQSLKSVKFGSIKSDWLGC
# T2: collagenase 1 (UniProt P03956 100-469, limits assumed)
# T2 sequence (looked up): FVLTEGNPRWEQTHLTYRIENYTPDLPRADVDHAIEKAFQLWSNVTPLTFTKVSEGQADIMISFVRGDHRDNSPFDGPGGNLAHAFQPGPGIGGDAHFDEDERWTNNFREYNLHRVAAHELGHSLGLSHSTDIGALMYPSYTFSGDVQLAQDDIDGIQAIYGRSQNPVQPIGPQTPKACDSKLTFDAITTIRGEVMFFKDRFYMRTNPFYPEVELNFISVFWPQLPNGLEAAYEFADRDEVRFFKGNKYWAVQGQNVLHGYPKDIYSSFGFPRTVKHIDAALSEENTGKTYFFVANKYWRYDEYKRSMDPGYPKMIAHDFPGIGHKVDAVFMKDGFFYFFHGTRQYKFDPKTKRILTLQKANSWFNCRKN
# Key:
# Experiment in all cases: cell-based or functional assay
# human Gelatinase-A = target: T1, human Gelatinase-A
# gelatinase B = gelatinase B (UniProt P14780 107-707, limits assumed)
# Chain of gelatinase B (P14780 107-707 limits assumed): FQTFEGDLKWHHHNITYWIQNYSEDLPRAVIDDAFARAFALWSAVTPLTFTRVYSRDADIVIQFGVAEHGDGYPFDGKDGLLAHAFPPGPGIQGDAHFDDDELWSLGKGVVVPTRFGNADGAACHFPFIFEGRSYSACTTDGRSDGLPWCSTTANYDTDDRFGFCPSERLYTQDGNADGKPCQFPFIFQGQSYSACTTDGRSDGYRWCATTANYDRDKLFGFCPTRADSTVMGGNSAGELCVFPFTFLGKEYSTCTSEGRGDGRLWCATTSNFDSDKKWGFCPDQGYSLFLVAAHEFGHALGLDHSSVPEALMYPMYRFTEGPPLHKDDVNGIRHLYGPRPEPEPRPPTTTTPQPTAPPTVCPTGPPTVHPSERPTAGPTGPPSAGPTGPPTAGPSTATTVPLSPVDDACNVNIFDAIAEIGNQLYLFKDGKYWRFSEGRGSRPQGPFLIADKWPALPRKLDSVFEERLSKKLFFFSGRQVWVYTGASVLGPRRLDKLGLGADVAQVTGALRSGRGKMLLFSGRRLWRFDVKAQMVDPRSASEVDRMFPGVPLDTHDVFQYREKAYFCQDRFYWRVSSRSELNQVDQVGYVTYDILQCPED
# collagenase 1 = target: T2, collagenase 1
# stromelysin 1 = stromelysin 1 (UniProt P08254 100-477, limits assumed)
# Chain of stromelysin 1 (P08254 100-477 limits assumed): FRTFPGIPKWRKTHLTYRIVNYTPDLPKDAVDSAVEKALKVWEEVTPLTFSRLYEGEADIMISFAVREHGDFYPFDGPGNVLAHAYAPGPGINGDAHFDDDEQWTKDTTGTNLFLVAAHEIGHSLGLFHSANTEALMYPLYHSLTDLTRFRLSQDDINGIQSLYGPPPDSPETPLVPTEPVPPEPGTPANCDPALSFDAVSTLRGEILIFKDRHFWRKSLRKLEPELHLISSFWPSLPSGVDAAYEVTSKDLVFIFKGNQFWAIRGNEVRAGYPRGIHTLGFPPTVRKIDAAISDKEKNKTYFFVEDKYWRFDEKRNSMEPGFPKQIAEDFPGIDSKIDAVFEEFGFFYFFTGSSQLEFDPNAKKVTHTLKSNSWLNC
Binder,Selectivity v. Coll-3 (human Gelatinase-A),Selectivity v. Coll-3 (gelatinase B),Selectivity v. Coll-3 (collagenase 1),Selectivity v. Coll-3 (stromelysin 1)
Dnp-GPLGLHG[C(Me)]-NH2 (SMILES CSC[C@H](NC(=O)CNC(=O)[C@H](Cc1c[nH]cn1)NC(=O)[C@H](CC(C)C)NC(=O)CNC(=O)[C@H](CC(C)C)NC(=O)[C@@H]1CCCN1C(=O)CNc1ccc([N+](=O)[O-])cc1[N+](=O)[O-])C(N)=O) [Dnp-GPLGLHGC(Me)-NH2],16 unitless,5 unitless,660 unitless,10400 unitless
Dnp-GPLGFRG[C(Me)]-NH2 (SMILES CSC[C@H](NC(=O)CNC(=O)[C@H](CCCNC(=N)N)NC(=O)[C@H](Cc1ccccc1)NC(=O)CNC(=O)[C@H](CC(C)C)NC(=O)[C@@H]1CCCN1C(=O)CNc1ccc([N+](=O)[O-])cc1[N+](=O)[O-])C(N)=O) [Dnp-GPLGFRGC(Me)-NH2],10 unitless,7 unitless,10600 unitless,7290 unitless
Dnp-GPLGFRV[C(Me)]-NH2 (SMILES CSC[C@H](NC(=O)[C@@H](NC(=O)[C@H](CCCNC(=N)N)NC(=O)[C@H](Cc1ccccc1)NC(=O)CNC(=O)[C@H](CC(C)C)NC(=O)[C@@H]1CCCN1C(=O)CNc1ccc([N+](=O)[O-])cc1[N+](=O)[O-])C(C)C)C(N)=O) [Dnp-GPLGFRVC(Me)-NH2],15 unitless,20 unitless,17300 unitless,3970 unitless
Dnp-GPLPFHV[C(Me)]-NH2 (SMILES CSC[C@H](NC(=O)[C@@H](NC(=O)[C@H](Cc1c[nH]cn1)NC(=O)[C@H](Cc1ccccc1)NC(=O)[C@@H]1CCCN1C(=O)[C@H](CC(C)C)NC(=O)[C@@H]1CCCN1C(=O)CNc1ccc([N+](=O)[O-])cc1[N+](=O)[O-])C(C)C)C(N)=O) [Dnp-GPLPFHVC(Me)-NH2],20 unitless,18 unitless,2950 unitless,619 unitless
Dnp-GPSPFHV[C(Me)]-NH2 (SMILES CSC[C@H](NC(=O)[C@@H](NC(=O)[C@H](Cc1c[nH]cn1)NC(=O)[C@H](Cc1ccccc1)NC(=O)[C@@H]1CCCN1C(=O)[C@H](CO)NC(=O)[C@@H]1CCCN1C(=O)CNc1ccc([N+](=O)[O-])cc1[N+](=O)[O-])C(C)C)C(N)=O) [Dnp-GPSPFHVC(Me)-NH2],18 unitless,54 unitless,1570 unitless,2100 unitless
Dnp-GPSPLHG[C(Me)]-NH2 (SMILES CSC[C@H](NC(=O)CNC(=O)[C@H](Cc1c[nH]cn1)NC(=O)[C@H](CC(C)C)NC(=O)[C@@H]1CCCN1C(=O)[C@H](CO)NC(=O)[C@@H]1CCCN1C(=O)CNc1ccc([N+](=O)[O-])cc1[N+](=O)[O-])C(N)=O) [Dnp-GPSPLHGC(Me)-NH2],8 unitless,7 unitless,274 unitless,2990 unitless
Dnp-PHPFRG-NH2 (SMILES N=C(N)NCCC[C@H](NC(=O)[C@H](Cc1ccccc1)NC(=O)[C@@H]1CCCN1C(=O)[C@H](Cc1c[nH]cn1)NC(=O)[C@@H]1CCCN1c1ccc([N+](=O)[O-])cc1[N+](=O)[O-])C(=O)NCC(N)=O) [Dnp-PHPFRG-NH2],28 unitless,4 unitless,2230 unitless,1050 unitless
Dnp-GPAPFRG[C(Me)]-NH2 (SMILES CSC[C@H](NC(=O)CNC(=O)[C@H](CCCNC(=N)N)NC(=O)[C@H](Cc1ccccc1)NC(=O)[C@@H]1CCCN1C(=O)[C@H](C)NC(=O)[C@@H]1CCCN1C(=O)CNc1ccc([N+](=O)[O-])cc1[N+](=O)[O-])C(N)=O) [Dnp-GPAPFRGC(Me)-NH2],9 unitless,14 unitless,4420 unitless,488 unitless
